Positions count from the first letter of the chain named.
Columns and labels:
[1] = target: T1, monkey NPR1 extracellular domain expressed with a C-terminal myc-myc-hexahistidine (mfNPR1-MMH) (monkey, UniProt P16066 33-473 (human entry)); assay: SPR, mAb captured, 25 C
T1 construct: also called monomeric monkey NPR1
T1 chain: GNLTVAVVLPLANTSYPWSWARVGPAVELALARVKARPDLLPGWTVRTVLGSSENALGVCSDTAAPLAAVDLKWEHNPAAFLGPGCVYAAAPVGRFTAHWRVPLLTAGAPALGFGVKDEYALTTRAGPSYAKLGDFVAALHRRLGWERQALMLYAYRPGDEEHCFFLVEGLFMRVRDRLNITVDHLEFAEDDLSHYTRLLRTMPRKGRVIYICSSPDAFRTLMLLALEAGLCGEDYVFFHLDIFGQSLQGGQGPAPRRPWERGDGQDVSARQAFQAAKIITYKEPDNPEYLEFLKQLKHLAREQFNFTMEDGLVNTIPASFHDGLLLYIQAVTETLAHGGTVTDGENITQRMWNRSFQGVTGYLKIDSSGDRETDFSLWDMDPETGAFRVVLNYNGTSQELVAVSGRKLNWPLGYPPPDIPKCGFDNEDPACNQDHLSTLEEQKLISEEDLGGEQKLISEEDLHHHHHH
Experimental: (§1) Equilibrium dissociation constant (KD) for different NPR1 reagents binding to purified anti-NPR1 monoclonal antibodies (mAbs) were determined using a real-time surface plasmon resonance based Biacore 4000 biosensor. All binding studies were performed in 10 mM HEPES, 150 mM NaCl, 3 mM EDTA, and 0.05% v/v Surfactant Tween-20, pH 7.4 (HBS-ET) running buffer at 25° C. and 37° C. The Biacore CM5 sensor chip surface was first derivatized by amine coupling with either mouse anti-human Fc specific mAb (GE Healthcare, #BR100839) or goat anti-human Fcy specific polyclonal antibody (Jackson ImmunoResearch Laboratories, #BR-1008-39) to capture anti-NPR1 mAbs.

[2] = target: T2, mouse NPR1 extracellular domain expressed with a C-terminal myc-myc-hexahistidine (mNPR1-MMH) (mouse, UniProt P18293 29-469); assay: SPR, mAb captured, 25 C
Experimental: as §1

[3] = target: T3, human NPR1 extracellular domain expressed with a C-terminal mouse IgG2a (hNPR1-mFc) (human); assay: SPR, mAb captured, 25 C
T3 construct: also called hNPR1-Fc; human NPR1 dimer
T3 chain: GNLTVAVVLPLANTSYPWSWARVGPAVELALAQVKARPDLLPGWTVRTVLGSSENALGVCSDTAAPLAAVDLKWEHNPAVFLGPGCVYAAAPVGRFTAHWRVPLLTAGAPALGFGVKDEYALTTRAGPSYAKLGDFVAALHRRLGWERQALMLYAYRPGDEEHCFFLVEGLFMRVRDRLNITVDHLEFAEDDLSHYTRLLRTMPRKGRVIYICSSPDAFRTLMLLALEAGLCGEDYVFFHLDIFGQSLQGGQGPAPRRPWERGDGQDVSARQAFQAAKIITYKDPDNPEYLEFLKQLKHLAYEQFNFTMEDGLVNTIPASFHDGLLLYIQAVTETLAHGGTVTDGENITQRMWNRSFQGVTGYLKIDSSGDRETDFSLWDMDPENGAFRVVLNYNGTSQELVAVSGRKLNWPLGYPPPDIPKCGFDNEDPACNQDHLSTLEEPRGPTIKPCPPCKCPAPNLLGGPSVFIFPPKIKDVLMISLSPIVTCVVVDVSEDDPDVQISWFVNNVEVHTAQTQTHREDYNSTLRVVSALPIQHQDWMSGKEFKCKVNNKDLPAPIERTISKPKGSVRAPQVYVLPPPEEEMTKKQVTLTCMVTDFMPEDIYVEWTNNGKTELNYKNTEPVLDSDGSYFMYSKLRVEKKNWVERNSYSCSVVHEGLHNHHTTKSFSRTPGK
Experimental: as §1

[4] = target: T1, monkey NPR1 extracellular domain …; assay: SPR, mAb captured, 37 C
Experimental: as §1

[5] = target: T2, mouse NPR1 extracellular domain …; assay: SPR, mAb captured, 37 C
Experimental: as §1
Target sequence in this assay (P18293 other isoform, or with tags, fused parts or gaps): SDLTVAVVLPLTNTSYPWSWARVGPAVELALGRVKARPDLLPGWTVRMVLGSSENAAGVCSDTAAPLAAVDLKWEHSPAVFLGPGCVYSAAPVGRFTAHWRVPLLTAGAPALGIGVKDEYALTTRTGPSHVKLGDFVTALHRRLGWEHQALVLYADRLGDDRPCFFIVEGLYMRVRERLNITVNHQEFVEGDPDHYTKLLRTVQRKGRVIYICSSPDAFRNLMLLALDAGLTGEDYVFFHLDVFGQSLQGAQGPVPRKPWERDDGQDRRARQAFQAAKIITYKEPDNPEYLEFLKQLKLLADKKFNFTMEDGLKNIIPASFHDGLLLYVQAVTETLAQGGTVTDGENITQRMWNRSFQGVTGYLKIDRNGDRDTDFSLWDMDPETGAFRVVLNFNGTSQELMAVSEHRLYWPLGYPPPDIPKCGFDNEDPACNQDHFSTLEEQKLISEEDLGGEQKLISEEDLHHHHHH

[6] = target: T3, human NPR1 extracellular domain …; assay: SPR, mAb captured, 37 C
Experimental: as §1

[7] = target: T4, hNPR1-mFc:hANP or hNPR1-hFc:hANP complex (human, UniProt P01160 124-151); assay: SPR, mAb captured, 25C
T4 construct: also called human NPR1 complexed to ANP
How it was run: (§2)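 Biacore 4000 SPR with anti-NPR1 mAbs captured on CM5 chip via amine-coupled mouse anti-human Fc mAb or goat anti-human Fcγ polyclonal; NPR1 reagents flowed as analytes.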

hNPR1-mFc:hBNP complex [8] = target: T5, hNPR1-mFc:hBNP complex (human, UniProt P16860 103-134); assay: SPR, mAb captured, 25C
T5 construct: also called human NPR1 complexed to BNP
How it was run: as §2

mfNPR1-mFc [9] = target: T6, mfNPR1-mFc (monkey); assay: SPR, mAb captured, 25C
T6 construct: also called dimeric monkey NPR1
T6 chain: T3 chain with Q33R, V80A, D284E, Y302R, N385T
How it was run: as §2

mfNPR1-mFc:hANP complex [10] = target: T7, mfNPR1-mFc:hANP complex (monkey; human, UniProt P01160 124-151); assay: SPR, mAb captured, 25C
T7 construct: also called monkey NPR1 complexed to ANP
How it was run: as §2

mfNPR1-mFc:hBNP complex = target: T8, mfNPR1-mFc:hBNP complex (monkey; human, UniProt P16860 103-134); assay: SPR, mAb captured, 25C
T8 construct: also called monkey NPR1 complexed to BNP
How it was run: as §2

[11] = target: T4, hNPR1-mFc:hANP or hNPR1-hFc:hANP complex; assay: SPR, mAb captured, 37C
How it was run: as §2

hNPR1-mFc:hBNP complex [12] = target: T5, hNPR1-mFc:hBNP complex; assay: SPR, mAb captured, 37C
How it was run: as §2

mfNPR1-mFc [13] = target: T6, mfNPR1-mFc; assay: SPR, mAb captured, 37C
How it was run: as §2

mfNPR1-mFc:hANP complex [14] = target: T7, mfNPR1-mFc:hANP complex; assay: SPR, mAb captured, 37C
How it was run: as §2

B1: mAb22810 (antibody, V domains shown)
VH: EVQLVESGGGLVKPGGSLRLSCVVSGFTFRIYTMNWVRQAPGKGLEWVASISSSSSFINYADSLKGRFTISRDNAQNSLYLQMNSLRAEDTAIYYCARAAGNDVLPGRMDVWGQGTSVTVSS
VL: EIVLTQSPGTLSLSPGERATLSCRASQSVSSNYLAWYQQKPGQVPSLLIYGASSRATGIPDRFSGSGSGTDFTLTITRLEPEDFAVYYCQQYGISPWTFGQGTKVEIK
[1]
  100 nM Ag Bound (RU): 1 RU
  binding result: no binding (tested: 100 nM)
[2]
  100 nM Ag Bound (RU): -1 RU
[3]
  100 nM Ag Bound (RU): 4 RU
[4]
  100 nM Ag Bound (RU): 0 RU
[5]
  100 nM Ag Bound (RU): -2 RU
[6]
  100 nM Ag Bound (RU): 9 RU

B2: mAb25498 (antibody, human IgG4, V domains shown)
VH: QVQLVESGGGVVQPGRSLRLSCVASGFTFSSYGMVWVRQTPGKGLEWVAVIWHDGTNNYYADSVKGRFTISRDNSKNTLYLQMNSLRAEDTAVYYCAREPWLVRGYYYYAMDVWGQGTTVTVSS
VL: not shown
[7]
  100 nM Ag Bound (RU): 52 RU
  Kd: 6.93 nM
  koff: 0.000317 s⁻¹
  kon: 45800 M⁻¹ s⁻¹
  t½: 0.607 h
hNPR1-mFc:hBNP complex [8]
  100 nM Ag Bound (RU): 55 RU
  Kd: 5.28 nM
  koff: 0.000256 s⁻¹
  kon: 48500 M⁻¹ s⁻¹
  t½: 0.752 h
mfNPR1-mFc [9]
  100 nM Ag Bound (RU): 128 RU
  Kd: 2.45 nM
  koff: 0.000177 s⁻¹
  kon: 72000 M⁻¹ s⁻¹
  t½: 1.09 h
mfNPR1-mFc:hANP complex [10]
  100 nM Ag Bound (RU): 81 RU
  Kd: 2.68 nM
  koff: 0.000112 s⁻¹
  kon: 41900 M⁻¹ s⁻¹
  t½: 1.72 h
mfNPR1-mFc:hBNP complex
  100 nM Ag Bound (RU): 81 RU
  Kd: 2.53 nM
  koff: 0.000109 s⁻¹
  kon: 43200 M⁻¹ s⁻¹
  t½: 1.77 h
[11]
  100 nM Ag Bound (RU): 74 RU
  Kd: 13.6 nM
  koff: 0.00072 s⁻¹
  kon: 53000 M⁻¹ s⁻¹
  t½: 0.267 h
hNPR1-mFc:hBNP complex [12]
  100 nM Ag Bound (RU): 76 RU
  Kd: 17.9 nM
  koff: 0.000948 s⁻¹
  kon: 52900 M⁻¹ s⁻¹
  t½: 0.203 h
mfNPR1-mFc [13]
  100 nM Ag Bound (RU): 170 RU
  Kd: 4.06 nM
  koff: 0.000372 s⁻¹
  kon: 91600 M⁻¹ s⁻¹
  t½: 0.518 h
mfNPR1-mFc:hANP complex [14]
  100 nM Ag Bound (RU): 114 RU
  Kd: 8.89 nM
  koff: 0.000445 s⁻¹
  kon: 50100 M⁻¹ s⁻¹
  t½: 0.432 h

B3: mAb25508 (antibody, human IgG4, V domains shown)
VH: EVQLVESGGGVVRPGGSLRLSCAASGFNVDDYGMSWVRQIPGKGLEWISGINWNGGRIYYADSMKGRITISRDNAKNSLYLQMNSLRAEDTALYHCVRDQWLVRGLDYWGQGTLVTVSS
VL: DIQMTQSPSSLSASVGDRVTITCRASQGIYNYLAWFQQKPGKAPKSLIYAASSLQSGVPSKFSGSGSGTDFTLTISSLQPEDFATYYCQQYNTYPYTFGQGTKLEIK
[7]
  100 nM Ag Bound (RU): 199 RU
  Kd: 0.34 nM
  koff: 8.97e-05 s⁻¹
  kon: 264000 M⁻¹ s⁻¹
  t½: 2.15 h
hNPR1-mFc:hBNP complex [8]
  100 nM Ag Bound (RU): 200 RU
  Kd: 0.343 nM
  koff: 8.57e-05 s⁻¹
  kon: 250000 M⁻¹ s⁻¹
  t½: 2.24 h
mfNPR1-mFc [9]
  100 nM Ag Bound (RU): 230 RU
  Kd: 0.116 nM
  koff: 5.98e-05 s⁻¹
  kon: 515000 M⁻¹ s⁻¹
  t½: 3.22 h
mfNPR1-mFc:hANP complex [10]
  100 nM Ag Bound (RU): 224 RU
  Kd: 0.233 nM
  koff: 7.32e-05 s⁻¹
  kon: 314000 M⁻¹ s⁻¹
  t½: 2.63 h
mfNPR1-mFc:hBNP complex
  100 nM Ag Bound (RU): 229 RU
  Kd: 0.29 nM
  koff: 8.91e-05 s⁻¹
  kon: 308000 M⁻¹ s⁻¹
  t½: 2.16 h
[11]
  100 nM Ag Bound (RU): 230 RU
  Kd: 0.506 nM
  koff: 0.000148 s⁻¹
  kon: 293000 M⁻¹ s⁻¹
  t½: 1.3 h
hNPR1-mFc:hBNP complex [12]
  100 nM Ag Bound (RU): 236 RU
  Kd: 0.466 nM
  koff: 0.000164 s⁻¹
  kon: 352000 M⁻¹ s⁻¹
  t½: 1.17 h
mfNPR1-mFc [13]
  100 nM Ag Bound (RU): 268 RU
  Kd: 0.132 nM
  koff: 8.36e-05 s⁻¹
  kon: 634000 M⁻¹ s⁻¹
  t½: 2.3 h
mfNPR1-mFc:hANP complex [14]
  100 nM Ag Bound (RU): 262 RU
  Kd: 0.355 nM
  koff: 0.000146 s⁻¹
  kon: 411000 M⁻¹ s⁻¹
  t½: 1.32 h

Reference: patent US20240309103A1 (Regeneron, published 2024)
